Data on 1 molecule can be found in US20090181444A1, “MODIFIED CARBOHYDRATE PROCESSING ENZYME” (priority 2002, published 2009).

The term Km denotes the substrate concentration at which the rate is half of its maximum. As usually defined, the kcat is the number of substrate molecules converted per active site and unit of time at saturation.

Holding throughout (assay type): biochemical
Data set [1] can be described thus: Hydrolysis of 4-methylumbelliferyl-β-D-glucoside, initial rates. Particulars: 4-MUGlc, 80° C., pH 6.5. Here is the method: (§1) Parameters were determined by the method of initial rates. Activity was measured in time course assays of the hydrolysis of 4-methylumbelliferyl-β-D-glycosides (β-D-gluco, β-D-galacto, β-D-fuco, β-D-manno, β-D-xylo, β-D-glucurono) at 5-15 concentrations (0.001-1.5 mM) incubated at 80° C. in 50 mM sodium phosphate buffer, pH 6.5. Reactions were terminated at 2, 5, 10, 15 min by the addition of 100 μl of ice cold 1M NazCO3, pH 10 and analyzed (Labsystems Fluoroscan Ascent plate reader, […]). KM and kcat were derived by fitting the initial rates to hyperbolic Michaelis-Menten curves using GraFit 4 (Erithacus Software Ltd, Staines, UK).
(§2) Determination of the Michaelis-Menten parameters for the WT and mutant enzymes was performed at pH 6.5 at 80° C. for a broad range of representative, fluorophore-containing 4-methylumbelliferyl glycoside substrates, which allowed activities to be determined with a high degree of sensitivity (Table). Under these optimized assay conditions, the glucoside (Glc), galactoside (Gal) and fucoside (Fuc) substrates were hydrolysed well by SSβG-WT, but the xyloside (Xyl) substrate was hydrolysed relatively poorly (approx. 3% of turnover as determined by kcat compared with β-D-glucoside). […] In all cases the absolute D-stereospecificity and β-stereoselectivity of SSβG was maintained and no activity was detected towards L- or α-glycoside substrates.

A short description of data set [2]: Hydrolysis of 4-methylumbelliferyl-β-D-galactoside, initial rates. Particulars: 4-MUGal, 80° C., pH 6.5. How it is done: as §1, §2
Data set [3] in a line: Hydrolysis of 4-methylumbelliferyl-β-D-fucoside, initial rates. Particulars: 4-MUFuc, 80° C., pH 6.5. Here is the method: as §1, §2
The nature of data set [4]: Hydrolysis of 4-methylumbelliferyl-β-D-mannoside, initial rates. The following applies: 80° C., pH 6.5. Here is the method:
as §1, §2

Data set [5] is described as follows: Hydrolysis of 4-methylumbelliferyl-β-D-xyloside, initial rates. The following applies: 80° C., pH 6.5. Here is the method:
as §1, §2

The nature of data set [6]: Hydrolysis of 4-methylumbelliferyl-β-D-glucuronide, initial rates. Particulars: 80° C., pH 6.5. Here is the method:
as §1, §2

Data set [7] in a line: Kinetic assay with p-nitrophenyl β-D-galactopyranoside, absorbance at 405 nm. Particulars: pNPGal. Here is the method: (§3) The kinetic activity of SsδG was assessed using ultra-violet/visible spectroscopy. Cleavage of the glycosidic bond of the nitrophenyl sugar analogue releases a chromophore (Scheme 18), either p-nitrophenol or o-nitrophenol.
(§4) The absorbance of these chromophores at 405 nm was continuously measured at regular time intervals, and the Beer-Lambert Law used to calculate the chromophore concentration at each of these time intervals.
(§5) In order to use this equation the extinction coefficient, ∈, of both p-nitrophenol and o-nitrophenol were calculated. Enzyme kinetic parameters were assessed using the initial rates method. The gradient of a plot of chromophore concentration against time gave the initial rate of reaction at a series of substrate concentrations (0.05-10 mM). Kinetic parameters were calculated by regression analysis of the kinetic data on the Michaelis-Menten Model (Fersht, A., Enzyme Structure and Mechanism, W.H. Freeman and Company, New York (1985)). The initial rate of reaction was measured. This model is valid when [substrate]>>[enzyme], which are initial rate conditions.
(§6) KM and νmax were calculated from non-linear Michaelis-Menten and linear Lineweaver-Burk plots. From these values, kcat and kcat/KM were calculated and compared.
KM=νmax/2, it is the concentration of substrate at which half the active sites are filled. Higher KM values correspond to weaker binding and lower KM values correspond to stronger binding kcat, the turnover number is the number of substrate molecules which are converted to product when the enzyme is saturated with substrate and ν (rate) is maximised. Given both of these considerations, binding and rate, kcat/KM is typically as a measure of the overall relative activity of the enzyme. To allow comparison of the activity of the enzymes, ln({kcat/KM}mutant/{kcat/KM}WT) was calculated for each enzyme-substrate combination, to give overall activity relative to WT.
Substrate solutions (concentration 10 mM in 50 mM pH 6.5 phosphate buffer) were prepared. Kinetic assays were conducted in a 96-well flat bottom microtitre plate. Eight substrate concentrations were chosen for the assay from the range 0.05 mM to 10 mM (prepared from 10 mM stock solution), based on previous experimental experience of the kinetics of each enzyme (default range 0.05 mM to 2.00 mM)*. The enzyme stock solution (˜1 mgmL^−1) was diluted between 16- and 80-fold depending on the kinetic parameters determined*. The enzyme solution (496 µL) was dispensed into a 1.5 mL sealed Eppendorf tube. Into eight further Eppendorf tubes a portion of each substrate solution (650 μL) was dispensed. The tubes were incubated in a Techni Dri Block at 45° C. Simultaneously a 96-well flat bottom microtitre plate was incubated at 45° C. in a plate reader. […] The plate containing the enzyme and substrate solutions was then incubated in the plate reader at 45° C. to allow equilibration. […] Release of p-nitrophenol/o-nitropbenol was measured by absorbance at […], with an automix of 3 s before the first read and Is between every subsequent read. The run time chosen was between 6 min and 10 min*, and readings were taken at intervals of between 6 s and 10 s*.
(§7) A graph of concentration of the released chromophore (either pNP or oNP) against time was drawn for each concentration using Microsoft Excel. […] These gradients were entered into Grafit, which calculated KM and νmax from the Michelis-Menten and Lineweaver-Burk plots. From these kcat and kcat/KM could be calculated. […]

Data set [8] in a line: Kinetic assay with o-nitrophenyl β-D-galactopyranoside-6-phosphate, absorbance at 405 nm. The following applies: oNPGalP6, 45° C., pH 6.5 phosphate buffer; averaged over 3 runs, except * 2 runs. How it is done: as §3, §4, §5, §6
KM=νmax/2, it is the concentration of substrate at which half the active sites are filled. Higher KM values correspond to weaker binding and lower KM values correspond to stronger binding kcat, the turnover number is the number of substrate molecules which are converted to product when the enzyme is saturated with substrate and ν (rate) is maximised. […] To allow comparison of the activity of the enzymes, ln({kcat/KM}mutant/{kcat/KM}WT) was calculated for each enzyme-substrate combination, to give overall activity relative to WT.
Substrate solutions (concentration 10 mM in 50 mM pH 6.5 phosphate buffer) were prepared. […] The enzyme stock solution (˜1 mgmL^−1) was diluted between 16- and 80-fold depending on the kinetic parameters determined*. […] Simultaneously a 96-well flat bottom microtitre plate was incubated at 45° C. in a plate reader. […] The plate containing the enzyme and substrate solutions was then incubated in the plate reader at 45° C. to allow equilibration. […] Release of p-nitrophenol/o-nitropbenol was measured by absorbance at […], with an automix of 3 s before the first read and Is between every subsequent read. The run time chosen was between 6 min and 10 min*, and readings were taken at intervals of between 6 s and 10 s*.
as §7

Data set [9] in a line: Substrate specificity compared across 4-methylumbelliferyl-β-D-glycosides. Here is the method: as §1, §2

B1: WT: Wild type β-glycosidase from Sulfolobus solfataricus (SEQ ID NO: 2), recombinant with N-terminal His6-tag (protein, listed as Sulfolobus solfataricus)
chain: MYSFPNSFRFGWSQAGFQSEMGTPGSEDPNTDWYKWVHDPENMAAGLVSGDLPENGPGYWGNYKTFHDNAQKMGLKIARLNVEWSRIFPNPLPRPQNFDESKQDVTEVEINENELKRLDEYANKDALNHYREIFKDLKSRGLYFILNMYHWPLPLWLHDPIRVRRGDFTGPSGWLSTRTVYEFARFSAYIAWKFDDLVDEYSTMNEPNVVGGLGYVGVKSGFPPGYLSFELSRRHMYNIIQAHARAYDGIKSVSKKPVGIIYANSSFQPLTDKDMEAVEMAENDNRWWFFDAIIRGEITRGNEKIVRDDLKGRLDWIGVNYYTRTVVKRTEKGYVSLGGYGHGCERNSVSLAGLPTSDFGWEFFPEGLYDVLTKYWNRYHLYMYVTENGIADDADYQRPYYLVSHVYQVHRAINSGADVRGYLHWSLADNYEWASGFSMRFGLLKVDYNTKRLYWRPSALVYREIATNGAITDEIEHLNSVPPVKPLRH
modifications: N-terminal His6 tag
Regarding B1, the Km in [1] came to 46 ± 17 µM; in [2] it was 66 ± 17 µM; in [3], 11 ± 2 µM; in data set [4] (4-MUMan), 36 ± 9 µM; in data set [5] (4-MUXyl), 130 ± 30 µM; in [6] (4-MUGlcA, read-out: Km), 1300 ± 400 µM. In addition, the Km in data set [7] (45° C., pH 6.5 phosphate buffer, averaged over 3 runs, except * 2 runs, read-out: KM) was 459 µM; in data set [7] (read-out: average KM) it was 459 µM; in data set [8], 2090 µM. The kcat in data set [1] was 140 ± 20 s⁻¹; in data set [2], 98 ± 7 s⁻¹; in data set [3], 80 ± 2 s⁻¹; in [4] (4-MUMan) it was 1.8 ± 0.2 s⁻¹; in [5] (4-MUXyl), 3.8 ± 0.3 s⁻¹; in data set [6] (4-MUGlcA), 0.81 ± 0.18 s⁻¹. Moreover, the kcat in data set [7] (45° C., pH 6.5 phosphate buffer, averaged over 3 runs, except * 2 runs) turned out to be 5.07 s⁻¹; in [8], 5.52 s⁻¹. Besides, the “β-D-mannoside activity, turnover relative to β-D-glucoside” value in data set [4] was “approx. 1%”. Also, the “turnover (kcat) towards xyloside compared with β-D-glucoside” value in data set [5] is listed as “approx. 3%”. Moreover, the “β-D-glucuronide activity, turnover relative to β-D-glucoside” value in data set [6] was approximately 0.5%. In data set [9], the “specificity range of kcat/KM for Glc:Gal:Xyl:Man” value was 100 fold.
